B1: KB001 mouse Fab FASEBA VH S61T (Fab, V domains shown)
VH: EVQLKQSGPGLVAPSQSLSITCTVSGFSLSIYSVHWVRQPPGKGLEWLGMIWGGGSSDYNTALKSRLSISKDNSKSQVFLKMNSLQTDDTAMYYCARNGNFYAMDYWGQGTSVTVSS
VL: QIVLTQSPAIMSASLGERVTMTCTASSSVSSSFLHWYQQKPGSSPQLWIYSTSNLASGVPARFSGSGSGTSYSLTISSMEAEDAATYYCHQYHHSPYIYTFGGGTKLEIK
B2: KB001 mouse Fab FASEBA VH Y106A (Fab, V domains shown)
VH: EVQLKQSGPGLVAPSQSLSITCTVSGFSLSIYSVHWVRQPPGKGLEWLGMIWGGGSSDYNSALKSRLSISKDNSKSQVFLKMNSLQTDDTAMYYCARNGNFYAMDAWGQGTSVTVSS
VL: QIVLTQSPAIMSASLGERVTMTCTASSSVSSSFLHWYQQKPGSSPQLWIYSTSNLASGVPARFSGSGSGTSYSLTISSMEAEDAATYYCHQYHHSPYIYTFGGGTKLEIK
B3: KB001 mouse Fab FASEBA VH Y106T (Fab, V domains shown)
VH: EVQLKQSGPGLVAPSQSLSITCTVSGFSLSIYSVHWVRQPPGKGLEWLGMIWGGGSSDYNSALKSRLSISKDNSKSQVFLKMNSLQTDDTAMYYCARNGNFYAMDTWGQGTSVTVSS
VL: QIVLTQSPAIMSASLGERVTMTCTASSSVSSSFLHWYQQKPGSSPQLWIYSTSNLASGVPARFSGSGSGTSYSLTISSMEAEDAATYYCHQYHHSPYIYTFGGGTKLEIK
B4: KB001 mouse Fab FASEBA VH K64R (Fab, V domains shown)
VH: EVQLKQSGPGLVAPSQSLSITCTVSGFSLSIYSVHWVRQPPGKGLEWLGMIWGGGSSDYNSALRSRLSISKDNSKSQVFLKMNSLQTDDTAMYYCARNGNFYAMDYWGQGTSVTVSS
VL: QIVLTQSPAIMSASLGERVTMTCTASSSVSSSFLHWYQQKPGSSPQLWIYSTSNLASGVPARFSGSGSGTSYSLTISSMEAEDAATYYCHQYHHSPYIYTFGGGTKLEIK
B5: KB001 mouse Fab FASEBA VH N100E (Fab, V domains shown)
VH: EVQLKQSGPGLVAPSQSLSITCTVSGFSLSIYSVHWVRQPPGKGLEWLGMIWGGGSSDYNSALKSRLSISKDNSKSQVFLKMNSLQTDDTAMYYCARNGEFYAMDYWGQGTSVTVSS
VL: QIVLTQSPAIMSASLGERVTMTCTASSSVSSSFLHWYQQKPGSSPQLWIYSTSNLASGVPARFSGSGSGTSYSLTISSMEAEDAATYYCHQYHHSPYIYTFGGGTKLEIK
B6: KB001 mouse Fab FASEBA VH Y106I (Fab, V domains shown)
VH: EVQLKQSGPGLVAPSQSLSITCTVSGFSLSIYSVHWVRQPPGKGLEWLGMIWGGGSSDYNSALKSRLSISKDNSKSQVFLKMNSLQTDDTAMYYCARNGNFYAMDIWGQGTSVTVSS
VL: QIVLTQSPAIMSASLGERVTMTCTASSSVSSSFLHWYQQKPGSSPQLWIYSTSNLASGVPARFSGSGSGTSYSLTISSMEAEDAATYYCHQYHHSPYIYTFGGGTKLEIK
B7: KB001 mouse Fab FASEBA VH S61N (Fab, V domains shown)
VH: EVQLKQSGPGLVAPSQSLSITCTVSGFSLSIYSVHWVRQPPGKGLEWLGMIWGGGSSDYNNALKSRLSISKDNSKSQVFLKMNSLQTDDTAMYYCARNGNFYAMDYWGQGTSVTVSS
VL: QIVLTQSPAIMSASLGERVTMTCTASSSVSSSFLHWYQQKPGSSPQLWIYSTSNLASGVPARFSGSGSGTSYSLTISSMEAEDAATYYCHQYHHSPYIYTFGGGTKLEIK
B8: KB001 mouse Fab FASEBA VH Y106L (Fab, V domains shown)
VH: EVQLKQSGPGLVAPSQSLSITCTVSGFSLSIYSVHWVRQPPGKGLEWLGMIWGGGSSDYNSALKSRLSISKDNSKSQVFLKMNSLQTDDTAMYYCARNGNFYAMDLWGQGTSVTVSS
VL: QIVLTQSPAIMSASLGERVTMTCTASSSVSSSFLHWYQQKPGSSPQLWIYSTSNLASGVPARFSGSGSGTSYSLTISSMEAEDAATYYCHQYHHSPYIYTFGGGTKLEIK
B9: KB001 mouse Fab FASEBA VH Y106V (Fab, V domains shown)
VH: EVQLKQSGPGLVAPSQSLSITCTVSGFSLSIYSVHWVRQPPGKGLEWLGMIWGGGSSDYNSALKSRLSISKDNSKSQVFLKMNSLQTDDTAMYYCARNGNFYAMDVWGQGTSVTVSS
VL: QIVLTQSPAIMSASLGERVTMTCTASSSVSSSFLHWYQQKPGSSPQLWIYSTSNLASGVPARFSGSGSGTSYSLTISSMEAEDAATYYCHQYHHSPYIYTFGGGTKLEIK
B10: KB001 mouse Fab FASEBA VH S65T (Fab, V domains shown)
VH: EVQLKQSGPGLVAPSQSLSITCTVSGFSLSIYSVHWVRQPPGKGLEWLGMIWGGGSSDYNSALKTRLSISKDNSKSQVFLKMNSLQTDDTAMYYCARNGNFYAMDYWGQGTSVTVSS
VL: QIVLTQSPAIMSASLGERVTMTCTASSSVSSSFLHWYQQKPGSSPQLWIYSTSNLASGVPARFSGSGSGTSYSLTISSMEAEDAATYYCHQYHHSPYIYTFGGGTKLEIK
B11: KB001 mouse Fab FASEBA VH Y106R (Fab, V domains shown)
VH: EVQLKQSGPGLVAPSQSLSITCTVSGFSLSIYSVHWVRQPPGKGLEWLGMIWGGGSSDYNSALKSRLSISKDNSKSQVFLKMNSLQTDDTAMYYCARNGNFYAMDRWGQGTSVTVSS
VL: QIVLTQSPAIMSASLGERVTMTCTASSSVSSSFLHWYQQKPGSSPQLWIYSTSNLASGVPARFSGSGSGTSYSLTISSMEAEDAATYYCHQYHHSPYIYTFGGGTKLEIK
B12: KB001 mouse Fab FASEBA VH Y106M (Fab, V domains shown)
VH: EVQLKQSGPGLVAPSQSLSITCTVSGFSLSIYSVHWVRQPPGKGLEWLGMIWGGGSSDYNSALKSRLSISKDNSKSQVFLKMNSLQTDDTAMYYCARNGNFYAMDMWGQGTSVTVSS
VL: QIVLTQSPAIMSASLGERVTMTCTASSSVSSSFLHWYQQKPGSSPQLWIYSTSNLASGVPARFSGSGSGTSYSLTISSMEAEDAATYYCHQYHHSPYIYTFGGGTKLEIK
B13: KB001 mouse Fab FASEBA VH S65V (Fab, V domains shown)
VH: EVQLKQSGPGLVAPSQSLSITCTVSGFSLSIYSVHWVRQPPGKGLEWLGMIWGGGSSDYNSALKVRLSISKDNSKSQVFLKMNSLQTDDTAMYYCARNGNFYAMDYWGQGTSVTVSS
VL: QIVLTQSPAIMSASLGERVTMTCTASSSVSSSFLHWYQQKPGSSPQLWIYSTSNLASGVPARFSGSGSGTSYSLTISSMEAEDAATYYCHQYHHSPYIYTFGGGTKLEIK
B14: KB001 mouse Fab FASEBA VH A103S (Fab, V domains shown)
VH: EVQLKQSGPGLVAPSQSLSITCTVSGFSLSIYSVHWVRQPPGKGLEWLGMIWGGGSSDYNSALKSRLSISKDNSKSQVFLKMNSLQTDDTAMYYCARNGNFYSMDYWGQGTSVTVSS
VL: QIVLTQSPAIMSASLGERVTMTCTASSSVSSSFLHWYQQKPGSSPQLWIYSTSNLASGVPARFSGSGSGTSYSLTISSMEAEDAATYYCHQYHHSPYIYTFGGGTKLEIK
B15: KB001 mouse Fab FASEBA VH K64A (Fab, V domains shown)
VH: EVQLKQSGPGLVAPSQSLSITCTVSGFSLSIYSVHWVRQPPGKGLEWLGMIWGGGSSDYNSALASRLSISKDNSKSQVFLKMNSLQTDDTAMYYCARNGNFYAMDYWGQGTSVTVSS
VL: QIVLTQSPAIMSASLGERVTMTCTASSSVSSSFLHWYQQKPGSSPQLWIYSTSNLASGVPARFSGSGSGTSYSLTISSMEAEDAATYYCHQYHHSPYIYTFGGGTKLEIK
B16: KB001 mouse Fab FASEBA VH G99S (Fab, V domains shown)
VH: EVQLKQSGPGLVAPSQSLSITCTVSGFSLSIYSVHWVRQPPGKGLEWLGMIWGGGSSDYNSALKSRLSISKDNSKSQVFLKMNSLQTDDTAMYYCARNSNFYAMDYWGQGTSVTVSS
VL: QIVLTQSPAIMSASLGERVTMTCTASSSVSSSFLHWYQQKPGSSPQLWIYSTSNLASGVPARFSGSGSGTSYSLTISSMEAEDAATYYCHQYHHSPYIYTFGGGTKLEIK
B17: KB001 mouse Fab FASEBA VH Y106F (Fab, V domains shown)
VH: EVQLKQSGPGLVAPSQSLSITCTVSGFSLSIYSVHWVRQPPGKGLEWLGMIWGGGSSDYNSALKSRLSISKDNSKSQVFLKMNSLQTDDTAMYYCARNGNFYAMDFWGQGTSVTVSS
VL: QIVLTQSPAIMSASLGERVTMTCTASSSVSSSFLHWYQQKPGSSPQLWIYSTSNLASGVPARFSGSGSGTSYSLTISSMEAEDAATYYCHQYHHSPYIYTFGGGTKLEIK
B18: KB001 mouse Fab FASEBA VH S65D (Fab, V domains shown)
VH: EVQLKQSGPGLVAPSQSLSITCTVSGFSLSIYSVHWVRQPPGKGLEWLGMIWGGGSSDYNSALKDRLSISKDNSKSQVFLKMNSLQTDDTAMYYCARNGNFYAMDYWGQGTSVTVSS
VL: QIVLTQSPAIMSASLGERVTMTCTASSSVSSSFLHWYQQKPGSSPQLWIYSTSNLASGVPARFSGSGSGTSYSLTISSMEAEDAATYYCHQYHHSPYIYTFGGGTKLEIK
B19: KB001 mouse Fab FASEBA VH G99Y (Fab, V domains shown)
VH: EVQLKQSGPGLVAPSQSLSITCTVSGFSLSIYSVHWVRQPPGKGLEWLGMIWGGGSSDYNSALKSRLSISKDNSKSQVFLKMNSLQTDDTAMYYCARNYNFYAMDYWGQGTSVTVSS
VL: QIVLTQSPAIMSASLGERVTMTCTASSSVSSSFLHWYQQKPGSSPQLWIYSTSNLASGVPARFSGSGSGTSYSLTISSMEAEDAATYYCHQYHHSPYIYTFGGGTKLEIK

We go through 19 molecules from patent publication US20230365662A1.

“And” between values parts separate entries of the source, which are not always exact repeats. Equal values may be shown once.

The target of this assay is HRgpA-6H (Porphyromonas gingivalis) (UniProt P28784). Briefly: ELISA on coated HRgpA-6H.
UniProt P28784, sequence (P28784 228-991 limits assumed): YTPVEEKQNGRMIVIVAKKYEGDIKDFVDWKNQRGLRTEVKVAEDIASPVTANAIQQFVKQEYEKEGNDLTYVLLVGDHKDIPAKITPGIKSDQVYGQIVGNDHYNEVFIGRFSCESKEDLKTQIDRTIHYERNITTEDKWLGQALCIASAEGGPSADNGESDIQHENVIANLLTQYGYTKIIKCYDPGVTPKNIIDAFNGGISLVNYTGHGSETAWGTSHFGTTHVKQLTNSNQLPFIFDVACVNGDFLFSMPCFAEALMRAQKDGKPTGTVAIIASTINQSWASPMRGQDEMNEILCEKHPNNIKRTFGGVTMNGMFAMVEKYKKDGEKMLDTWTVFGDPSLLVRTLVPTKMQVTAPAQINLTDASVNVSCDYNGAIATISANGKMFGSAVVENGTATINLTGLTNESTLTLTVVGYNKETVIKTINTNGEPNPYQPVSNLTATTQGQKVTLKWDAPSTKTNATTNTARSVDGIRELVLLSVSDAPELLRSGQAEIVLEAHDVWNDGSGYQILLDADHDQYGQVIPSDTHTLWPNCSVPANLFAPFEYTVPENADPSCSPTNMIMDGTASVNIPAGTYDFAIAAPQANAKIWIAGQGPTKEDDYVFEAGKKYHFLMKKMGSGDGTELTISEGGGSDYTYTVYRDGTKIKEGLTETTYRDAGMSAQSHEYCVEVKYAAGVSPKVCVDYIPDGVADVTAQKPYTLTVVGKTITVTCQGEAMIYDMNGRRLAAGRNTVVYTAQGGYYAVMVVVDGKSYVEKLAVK
As to B1, the OD450nm was 0.543 and 0.447; the Ratio OD(Variant)/OD(WT) was 1.1 and 0.906.
Turning to B2, the OD450nm is 0.821 and 0.835; the Ratio OD(Variant)/OD(WT) was 1.07 and 1.09.
Take B3: the OD450nm amounted to 0.827 and the Ratio OD(Variant)/OD(WT) amounted to 1.07.
The corresponding values for B4 are 0.87 and 1.05.
The corresponding values for B5 are 0.886 and 1.05.
The corresponding values for B6 are 0.803 and 1.04.
For B7, the OD450nm is 0.537 and the Ratio OD(Variant)/OD(WT) was 1.09.
Taken in the same sequence, the figures for B8 were 0.791 and 1.03.
Regarding B9, the OD450nm was 0.795 and 0.84 and 0.802; the Ratio OD(Variant)/OD(WT) is 1.03 and 1.09 and 1.04.
For the molecule B10, the OD450nm is 0.883 and the Ratio OD(Variant)/OD(WT) was 1.07.
The corresponding values for B11 are 0.793 and 1.03.
Turning to B12, the OD450nm was 0.794 and 0.84; the Ratio OD(Variant)/OD(WT) was 1.03 and 1.09.
Turning to B13, the OD450nm is 0.867 and the Ratio OD(Variant)/OD(WT) was 1.05.
The corresponding values for B14 are 0.909 and 1.05.
The corresponding values for B15 are 0.89 and 1.08.
The corresponding values for B16 are 0.809 and 1.01.
As to B17, the OD450nm is 0.815 and 0.856; the Ratio OD(Variant)/OD(WT) was 1.06 and 1.11.
On to B18, for which the OD450nm was 0.866 and 0.897; the Ratio OD(Variant)/OD(WT) is 1.05 and 1.08.
As to B19, the OD450nm was found to be 0.835 and the Ratio OD(Variant)/OD(WT) turned out to be 1.05.
